# Laboratory results from US20150344570A1 (published 2015).
# T1: FcγRIIb (human, UniProt P31994 43-217)
# T1 construct: extracellular domain; also called FcgRIIb; CD32B
# T1 sequence (looked up): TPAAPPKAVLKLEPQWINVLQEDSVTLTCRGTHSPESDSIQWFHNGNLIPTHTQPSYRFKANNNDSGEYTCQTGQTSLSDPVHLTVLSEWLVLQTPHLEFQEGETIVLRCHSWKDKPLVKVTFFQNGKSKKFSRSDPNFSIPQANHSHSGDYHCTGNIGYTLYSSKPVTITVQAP
# T2: FcγRIIb extracellular domain with C-terminal His tag (human, UniProt P31994 43-217)
# T2 construct: extracellular domain; Soluble receptor expressed in FreeStyle293 cells, used as analyte in Biacore; also called FcgRIIb; 2b
# T2 sequence (looked up): T1 sequence (looked up)
# B1: GpH7-A5/GpH7-B3 variant P329_01G/GpL16-k0 (antibody, human IgG1, kappa)
# heavy 1: not shown
# heavy 2: not shown
# light: DIVMTQSPLSLPVTPGEPASISCQASESLVHSNRNTYLHWYLQKPGQSPQLLIYKVSNRFSGVPDRFSGSGSGTDFTLKISRVEAEDVGVYYCSQNTHVPPTFGQGTKVEIERTVAAPSVFIFPPSDEQLKSGTASVVCLLNNFYPREAKVQWKVDNALQSGNSQESVTEQDSKDSTYSLSSTLTLSKADYEKHKVYACEVTHQGLSSPVTKSFNRGEC
# notes: He Ab; mutation in the GpH7-B3 chain only; also called He Ab
# B2: GpH7-A5/GpH7-B3 variant A330_13S/GpL16-k0 (antibody, human IgG1, kappa)
# heavy 1: not shown
# heavy 2: not shown
# light: B1 light
# notes: as for B1
# B3: GpH7-A5/GpH7-B3 variant I336_13S/GpL16-k0 (antibody, human IgG1, kappa)
# heavy 1: not shown
# heavy 2: not shown
# light: B1 light
# notes: as for B1
# B4: GpH7-A5/GpH7-B3 variant A330_07I/GpL16-k0 (antibody, human IgG1, kappa)
# heavy 1: not shown
# heavy 2: not shown
# light: B1 light
# notes: as for B1
# B5: GpH7-A5/GpH7-B3 variant A330_14T/GpL16-k0 (antibody, human IgG1, kappa)
# heavy 1: not shown
# heavy 2: not shown
# light: B1 light
# notes: as for B1
# B6: GpH7-A5/GpH7-B3 variant E333_11K/GpL16-k0 (antibody, human IgG1, kappa)
# heavy 1: not shown
# heavy 2: not shown
# light: B1 light
# notes: as for B1
# B7: GpH7-A5/GpH7-B3 variant E333_02A/GpL16-k0 (antibody, human IgG1, kappa)
# heavy 1: not shown
# heavy 2: not shown
# light: B1 light
# notes: as for B1
# B8: GpH7-A5/GpH7-B3 variant A330_06M/GpL16-k0 (antibody, human IgG1, kappa)
# heavy 1: not shown
# heavy 2: not shown
# light: B1 light
# notes: as for B1
# B9: GpH7-A5/GpH7-B3 variant A327_16H/GpL16-k0 (antibody, human IgG1, kappa)
# heavy 1: not shown
# heavy 2: not shown
# light: B1 light
# notes: as for B1
# B10: GpH7-A5/GpH7-B3 variant I332_12R/GpL16-k0 (antibody, human IgG1, kappa)
# heavy 1: not shown
# heavy 2: not shown
# light: B1 light
# notes: as for B1
# B11: GpH7-A5/GpH7-B3 variant A330_08L/GpL16-k0 (antibody, human IgG1, kappa)
# heavy 1: not shown
# heavy 2: not shown
# light: B1 light
# notes: as for B1
# B12: GpH7-A5/GpH7-B3 variant A330_10E/GpL16-k0 (antibody, human IgG1, kappa)
# heavy 1: not shown
# heavy 2: not shown
# light: B1 light
# notes: as for B1
# B13: GpH7-A5/GpH7-B3 variant I336_02A/GpL16-k0 (antibody, human IgG1, kappa)
# heavy 1: not shown
# heavy 2: not shown
# light: B1 light
# notes: as for B1
# B14: GpH7-A5/GpH7-B3 variant E333_01G/GpL16-k0 (antibody, human IgG1, kappa)
# heavy 1: not shown
# heavy 2: not shown
# light: B1 light
# notes: as for B1
# B15: GpH7-A5/GpH7-B3 variant A330_20W/GpL16-k0 (antibody, human IgG1, kappa)
# heavy 1: not shown
# heavy 2: not shown
# light: B1 light
# notes: as for B1
# B16: GpH7-A5/GpH7-B3 variant E333_12R/GpL16-k0 (antibody, human IgG1, kappa)
# heavy 1: not shown
# heavy 2: not shown
# light: B1 light
# notes: as for B1
# B17: GpH7-A5/GpH7-B3 variant E333_16H/GpL16-k0 (antibody, human IgG1, kappa)
# heavy 1: not shown
# heavy 2: not shown
# light: B1 light
# notes: as for B1
# B18: GpH7-A5/GpH7-B3 variant A327_19Q/GpL16-k0 (antibody, human IgG1, kappa)
# heavy 1: not shown
# heavy 2: not shown
# light: B1 light
# notes: as for B1
# B19: GpH7-A5/GpH7-B3 variant A330_03V/GpL16-k0 (antibody, human IgG1, kappa)
# heavy 1: not shown
# heavy 2: not shown
# light: B1 light
# notes: as for B1
# B20: GpH7-A5/GpH7-B3 variant A327_20W/GpL16-k0 (antibody, human IgG1, kappa)
# heavy 1: not shown
# heavy 2: not shown
# light: B1 light
# notes: as for B1
# B21: GpH7-A5/GpH7-B3 variant A330_18N/GpL16-k0 (antibody, human IgG1, kappa)
# heavy 1: not shown
# heavy 2: not shown
# light: B1 light
# notes: as for B1
# B22: GpH7-A5/GpH7-B3 variant I336_01G/GpL16-k0 (antibody, human IgG1, kappa)
# heavy 1: not shown
# heavy 2: not shown
# light: B1 light
# notes: as for B1
# B23: GpH7-A5/GpH7-B3 variant A330_09D/GpL16-k0 (antibody, human IgG1, kappa)
# heavy 1: not shown
# heavy 2: not shown
# light: B1 light
# notes: as for B1
# B24: GpH7-A5/GpH7-B3 variant E333_13S/GpL16-k0 (antibody, human IgG1, kappa)
# heavy 1: not shown
# heavy 2: not shown
# light: B1 light
# notes: as for B1
# B25: GpH7-A5/GpH7-B3 variant E333_18N/GpL16-k0 (antibody, human IgG1, kappa)
# heavy 1: not shown
# heavy 2: not shown
# light: B1 light
# notes: as for B1
# B26: GpH7-A5/GpH7-B3 variant A330_16H/GpL16-k0 (antibody, human IgG1, kappa)
# heavy 1: not shown
# heavy 2: not shown
# light: B1 light
# notes: as for B1
# B27: GpH7-A5/GpH7-B3 variant Y300_13S/GpL16-k0 (antibody, human IgG1, kappa)
# heavy 1: not shown
# heavy 2: not shown
# light: B1 light
# notes: Heterodimerized anti-glypican-3 IgG1; mutation in the GpH7-B3 chain only; also called He Ab
# B28: GpH7-A5/GpH7-B3 variant Y300_01G/GpL16-k0 (antibody, human IgG1, kappa)
# heavy 1: not shown
# heavy 2: not shown
# light: B1 light
# notes: as for B27
# B29: GpH7-A5/GpH7-B3 variant S324_19Q/GpL16-k0 (antibody, human IgG1, kappa)
# heavy 1: not shown
# heavy 2: not shown
# light: B1 light
# notes: as for B27
# B30: GpH7-A5/GpH7-B3 variant Y296_20W/GpL16-k0 (antibody, human IgG1, kappa)
# heavy 1: not shown
# heavy 2: not shown
# light: B1 light
# notes: as for B27
# B31: GpH7-A5/GpH7-B3 variant Y300_08L/GpL16-k0 (antibody, human IgG1, kappa)
# heavy 1: not shown
# heavy 2: not shown
# light: B1 light
# notes: as for B27
# B32: GpH7-A5/GpH7-B3 variant S324_16H/GpL16-k0 (antibody, human IgG1, kappa)
# heavy 1: not shown
# heavy 2: not shown
# light: B1 light
# notes: as for B27
# B33: GpH7-A5/GpH7-B3 variant Y300_14T/GpL16-k0 (antibody, human IgG1, kappa)
# heavy 1: not shown
# heavy 2: not shown
# light: B1 light
# notes: as for B27
# B34: GpH7-A5/GpH7-B3 variant Y300_07I/GpL16-k0 (antibody, human IgG1, kappa)
# heavy 1: not shown
# heavy 2: not shown
# light: B1 light
# notes: as for B27
# Molecular target: T3, FcγRIa (human, UniProt P12314 16-292)
# T3 construct: extracellular domain; also called FcgRI; CD64
# Experiment: ratio of He/Con_1a to He/Con_2b (FcγRIa over FcγRIIb), SPR
# Protocol: (§1) The heterodimerized antibodies He Abs in which one of the H chains was introduced with an alteration were assayed for their binding activities to each activating FcγR and inhibitory FcγR according to the method described in Example 4. […] The activating FcγRs in FIGS. 26, 27, 28, and 29 are FcγRIa, FcγRIIa (R), FcγRIIa (H), and FcγRIIIa, respectively.
# (§2) Analysis of interaction between objective antibody and the FcγR was carried out using Biacore T100 (GE Healthcare). HBS-EP+ (GE Healthcare) was used as the running buffer, and the measurement temperature was set to 25° C. Chips produced by immobilizing the antigen peptide by the amine coupling method to a Series S Sencor Chip CM5 (GE Healthcare), or alternatively, chips produced by allowing preliminarily biotinylated antigen peptides to interact with and immobilize onto a Series S Sensor Chip SA (certified) (GE Healthcare) were used. Antibodies of interest were captured onto an antigen peptide-immobilized chip, and allowed to interact to each FcγR diluted with running buffer. To regenerate and repeatedly use the chip, the antibodies captured on the chip were washed off by reacting 10 mM glycine-HCl, pH 1.5.
# T3 sequence (P12314 16-292): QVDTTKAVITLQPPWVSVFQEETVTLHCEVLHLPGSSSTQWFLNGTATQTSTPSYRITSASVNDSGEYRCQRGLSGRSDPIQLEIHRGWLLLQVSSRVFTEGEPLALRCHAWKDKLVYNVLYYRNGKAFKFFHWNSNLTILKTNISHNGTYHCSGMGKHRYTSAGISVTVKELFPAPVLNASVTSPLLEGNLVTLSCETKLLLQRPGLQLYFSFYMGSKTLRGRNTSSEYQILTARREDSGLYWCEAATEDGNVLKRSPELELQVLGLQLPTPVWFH
row,He_1a/2b (Ia/IIb),Binder
1,2.42,B1
2,2.22,B2
3,1.22,B3
4,1.57,B4
5,1.35,B5
6,1.27,B6
7,1.23,B7
8,1.3,B8
9,1.52,B9
10,2.05,B10
11,1.52,B11
12,1.53,B12
13,1.25,B13
14,1.26,B14
15,1.41,B15
16,1.27,B16
17,1.21,B17
18,1.78,B18
19,2.01,B19
20,1.24,B20
21,1.67,B21
22,1.21,B22
23,1.95,B23
24,1.26,B24
25,1.27,B25
26,1.21,B26

# Molecular target: T4, FcγRIIIa extracellular domain with C-terminal His tag (human, UniProt P08637 17-208)
# T4 construct: extracellular domain; also called FcgRIIIa; 3a
# Experiment: SPR (Biacore); He/Con_3a divided by He/Con_2b (FcγRIIIa against FcγRIIb)
# Outline: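 Biacore T100 SPR at 25 °C in HBS-EP+ running buffer. Antibodies were captured on antigen-peptide chips (amine-coupled on CM5 or biotinylated on SA) and each FcγR, diluted in running buffer, flowed as analyte; surfaces regenerated with 10 mM glycine-HCl, pH 1.5.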
# T4 sequence (P08637 17-208): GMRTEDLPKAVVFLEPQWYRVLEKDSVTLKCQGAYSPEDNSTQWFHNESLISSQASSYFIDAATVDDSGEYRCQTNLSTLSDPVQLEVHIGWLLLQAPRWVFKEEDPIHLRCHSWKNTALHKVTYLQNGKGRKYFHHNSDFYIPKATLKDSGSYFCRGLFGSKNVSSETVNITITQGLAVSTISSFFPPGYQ
row,He_3a/2b (IIIa/IIb) [ratio],Binder
1,1.37,B27
2,1.69,B28
3,1.33,B29
4,1.31,B30
5,1.43,B31
6,1.24,B32
7,1.53,B33
8,1.28,B34

# Molecular target: T3, FcγRIa
# Experiment: SPR (Biacore), captured antibody, soluble FcγR; relative to GpH7-A5/GpH7-B3/GpL16-k0 = 100
# Protocol: as §1, §2
row,He/Con_1a,Binder
1,101 % of control,B1
2,91.5 % of control,B2
3,102 % of control,B3
4,105 % of control,B4
5,105 % of control,B5
6,102 % of control,B6
7,103 % of control,B7
8,105 % of control,B8
9,96.5 % of control,B9
10,100 % of control,B10
11,107 % of control,B11
12,107 % of control,B12
13,106 % of control,B13
14,103 % of control,B14
15,108 % of control,B15
16,102 % of control,B16
17,101 % of control,B17
18,96.2 % of control,B18
19,106 % of control,B19
20,97.7 % of control,B20
21,106 % of control,B21
22,109 % of control,B22
23,109 % of control,B23
24,103 % of control,B24
25,96.6 % of control,B25
26,106 % of control,B26

# Molecular target: T1, FcγRIIb
# Experiment: as above
# Protocol: as §1, §2
row,He/Con_2b,Binder
1,41.7 % of control,B1
2,41.3 % of control,B2
3,83.7 % of control,B3
4,67.1 % of control,B4
5,77.9 % of control,B5
6,80.6 % of control,B6
7,83.8 % of control,B7
8,80.5 % of control,B8
9,63.5 % of control,B9
10,48.9 % of control,B10
11,70.5 % of control,B11
12,70.1 % of control,B12
13,84.9 % of control,B13
14,81.4 % of control,B14
15,76.1 % of control,B15
16,80.4 % of control,B16
17,83.3 % of control,B17
18,54.2 % of control,B18
19,52.4 % of control,B19
20,73.8 % of control,B20
21,63.7 % of control,B21
22,90.1 % of control,B22
23,55.6 % of control,B23
24,81.8 % of control,B24
25,76.1 % of control,B25
26,87.6 % of control,B26

# Molecular target: T2, FcγRIIb extracellular domain with …
# Experiment: SPR (Biacore), antibody captured on antigen peptide chip, FcγR as analyte; GpH7-A5/GpH7-B3/GpL16-k0 = 100
row,He/Con_2b (relative binding activity),Binder
1,53.9 % of control,B27
2,48.4 % of control,B28
3,66.8 % of control,B29
4,103 % of control,B30
5,73.6 % of control,B31
6,83.5 % of control,B32
7,55.6 % of control,B33
8,74.5 % of control,B34

# Molecular target: T4, FcγRIIIa extracellular domain with …
# Experiment: as above
row,He/Con_3a (relative binding activity),Binder
1,73.9 % of control,B27
2,81.6 % of control,B28
3,88.5 % of control,B29
4,135 % of control,B30
5,105 % of control,B31
6,104 % of control,B32
7,85.4 % of control,B33
8,95.1 % of control,B34
